According to the supplement of paper PMC7125110:
± gives the standard error. Fewer inactive variants are shown than the library holds.

B1: glmS ribozyme (parent)
chain: AUAAAAGCGCCAGAACUACAGAAAUGUAGUUGACGAGGAGGAGGUUUAUCGAAUUUUCGGCGGAUGCCUCCAAA

Key:
Conditions in all cases: with glucosamine-6-phosphate
[1] = variants of: B1; assay: self-cleavage kobs at 40 uM GlcN6P; higher = faster cleavage; RNA array
In short: (§1)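 E. coli RNA polymerase transcribed barcoded ribozyme variants in situ on sequenced MiSeq chips, which were tracked via a hybridised Cy3 probe at 37 °C. Tiles were imaged over ~14 h after glucosamine-6-phosphate (40 μM to 10 mM) in HEPES/KCl/Mg(OAc)2 buffer was flowed in. Normalised per-tile medians were fit to one- or two-exponential decays for kobs, and kcat and KM came from weighted Michaelis–Menten fits.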

[2] = variants of: B1; assay: self-cleavage kobs at 640 uM GlcN6P; higher = faster cleavage; RNA array
In short: as §1

[3] = variants of: B1; assay: self-cleavage kobs at 2500 uM GlcN6P; higher = faster cleavage; RNA array
In short: as §1

[4] = variants of: B1; assay: self-cleavage kobs at 10000 uM GlcN6P; higher = faster cleavage; RNA array
In short: as §1

[5] = variants of: B1; assay: self-cleavage kobs at 160 uM GlcN6P; higher = faster cleavage; RNA array
In short: as §1

Row | Variant | self-cleavage kobs at 40 uM GlcN6P [1] | self-cleavage kobs at 640 uM GlcN6P [2] | self-cleavage kobs at 2500 uM GlcN6P [3] | self-cleavage kobs at 10000 uM GlcN6P [4] | self-cleavage kobs at 160 uM GlcN6P [5]
1 | U56G U65A | 3.91e-05 ± 7.3e-06 s⁻¹ | 0.000245 ± 6.8e-05 s⁻¹ | 0.000827 ± 0.0002 s⁻¹ | 0.0026 ± 0.0003 s⁻¹ | –
2 | U54A C67G | 8.43e-05 ± 1.3e-05 s⁻¹ | 0.000297 ± 5.3e-05 s⁻¹ | 0.000126 ± 2.2e-05 s⁻¹ | 0.00147 ± 0.00055 s⁻¹ | 0.000213 ± 4.1e-05 s⁻¹
3 | U54A C67U | 0.000285 ± 9.7e-05 s⁻¹ | 0.00116 ± 0.00032 s⁻¹ | 0.00976 ± 0.0027 s⁻¹ | 0.00584 ± 0.0013 s⁻¹ | 0.000312 ± 9.1e-05 s⁻¹
4 | G51C G63A | < 1e-05 s⁻¹ | – | < 1e-05 s⁻¹ | – | < 1e-05 s⁻¹
5 | A53G G66U C67A | 7.95e-05 ± 1.9e-05 s⁻¹ | – | – | 0.00186 ± 0.00059 s⁻¹ | –
6 | A53G C61G C70U | < 1e-05 s⁻¹ | – | – | < 1e-05 s⁻¹ | –
7 | U56C G62U | < 1e-05 s⁻¹ | – | – | < 1e-05 s⁻¹ | –
8 | U57G U65G | < 1e-05 s⁻¹ | – | – | – | < 1e-05 s⁻¹
9 | U57G U65A | < 1e-05 s⁻¹ | < 1e-05 s⁻¹ | – | – | –
10 | U57A G59U | < 1e-05 s⁻¹ | < 1e-05 s⁻¹ | – | < 1e-05 s⁻¹ | < 1e-05 s⁻¹
11 | C50G A53U G63U U69A | 0.00027 ± 6.1e-05 s⁻¹ | – | 0.000121 ± 3.5e-05 s⁻¹ | 0.000127 ± 2.4e-05 s⁻¹ | 0.000207 ± 5.6e-05 s⁻¹
12 | U55G C67G | 0.000127 ± 1.4e-05 s⁻¹ | 0.000819 ± 0.00012 s⁻¹ | 0.000472 ± 0.0001 s⁻¹ | 0.00597 ± 0.00099 s⁻¹ | 0.000234 ± 5.1e-05 s⁻¹
13 | U57G G60C | < 1e-05 s⁻¹ | < 1e-05 s⁻¹ | < 1e-05 s⁻¹ | – | < 1e-05 s⁻¹
14 | A64C C68G C70G | < 1e-05 s⁻¹ | < 1e-05 s⁻¹ | < 1e-05 s⁻¹ | – | –
15 | U56G C67A | 6.65e-05 ± 1.8e-05 s⁻¹ | 0.00102 ± 0.00014 s⁻¹ | 0.000842 ± 0.00014 s⁻¹ | 0.00273 ± 0.00081 s⁻¹ | 0.000207 ± 5.3e-05 s⁻¹
16 | G51C A52U | < 1e-05 s⁻¹ | < 1e-05 s⁻¹ | – | < 1e-05 s⁻¹ | –
17 | C58A G62C | < 1e-05 s⁻¹ | < 1e-05 s⁻¹ | < 1e-05 s⁻¹ | – | < 1e-05 s⁻¹
18 | G63C A64U | < 1e-05 s⁻¹ | < 1e-05 s⁻¹ | < 1e-05 s⁻¹ | < 1e-05 s⁻¹ | –
19 | G51C C58A C70A | < 1e-05 s⁻¹ | – | – | – | –
20 | A52U G62A | < 1e-05 s⁻¹ | < 1e-05 s⁻¹ | < 1e-05 s⁻¹ | < 1e-05 s⁻¹ | –
